Results as given in paper PMC7481185.

Target: enolase (AP-MS) (Arabidopsis thaliana) (UniProt P25696)
UniProt P25696, sequence (P25696 whole entry): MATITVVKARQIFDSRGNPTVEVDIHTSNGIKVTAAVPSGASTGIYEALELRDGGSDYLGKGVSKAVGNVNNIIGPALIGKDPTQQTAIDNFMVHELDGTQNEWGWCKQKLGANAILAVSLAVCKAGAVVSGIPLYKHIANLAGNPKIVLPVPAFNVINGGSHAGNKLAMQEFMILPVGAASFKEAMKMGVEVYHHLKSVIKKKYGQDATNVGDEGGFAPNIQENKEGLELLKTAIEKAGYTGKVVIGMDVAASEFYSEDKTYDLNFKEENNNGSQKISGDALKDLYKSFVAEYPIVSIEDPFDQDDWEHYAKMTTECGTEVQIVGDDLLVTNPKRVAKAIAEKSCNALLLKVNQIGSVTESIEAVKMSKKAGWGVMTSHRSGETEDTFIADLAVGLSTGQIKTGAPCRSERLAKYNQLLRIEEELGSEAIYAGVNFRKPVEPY

“phosphoglycerate mutase 1 (AP-MS) (enzyme)” gave an efficiency (Kcat/KM) of the conversion of 3PGA to pyruvate, NADH-coupled assay: isolated mitochondria (complex) against total extra-plastidial extract (free enzymes) of 19 times.
